Reference: publication PMC11830004, “In situ and in vitro cryo-EM reveal structures of mycobacterial encapsulin assembly intermediates” (Communications Biology, 2025)
Where “and” joins values, the source holds several entries; their conditions need not be identical. Equal values may be shown once.

Molecular target: the molecule itself
Test: cryo-EM structure

B1: Mycobacterium tuberculosis encapsulin shell protein (Enctb) (natural protein)
chain: MNNLYRDLAPVTEAAWAEIELEAARTFKRHIAGRRVVDVSDPGGPVTAAVSTGRLIDVKAPTNGVIAHLRASKPLVRLRVPFTLSRNEIDDVERGSKDSDWEPVKEAAKKLAFVEDRTIFEGYSAASIEGIRSASSNPALTLPEDPREIPDVISQALSELRLAGVDGPYSVLLSADVYTKVSETSDHGYPIREHLNRLVDGDIIWAPAIDGAFVLTTRGGDFDLQLGTDVAIGYASHDTDTVRLYLQETLTFLCYTAEASVALSH
notes: also called Rv0798c; copies: 60
stoichiometry N: 60 and 48 and 52 and 54
